Source: patent publication US20230365681A1 (CELGENE, published 2023)
Numbering of substitutions follows the chain as printed.

Assays:
[1] = biological target: T1, FcγR2A (H131) recombinant protein (human, UniProt P12318 34-217); test: recombinant protein, compared with control anti-RSV IgG1 antibody (p value 0.0038)
T1 sequence (looked up): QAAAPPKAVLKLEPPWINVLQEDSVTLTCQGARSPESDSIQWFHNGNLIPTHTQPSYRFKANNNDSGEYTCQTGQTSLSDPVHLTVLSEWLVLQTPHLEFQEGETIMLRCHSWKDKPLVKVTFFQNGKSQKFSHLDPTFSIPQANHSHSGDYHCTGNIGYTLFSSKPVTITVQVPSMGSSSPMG

[2] = biological target: FcγR3A (F176) recombinant protein (human, UniProt P08637 17-208); test: recombinant protein, compared with control anti-RSV IgG1 antibody (p value 0.0045)
[3] = biological target: T2, human CD47 on cells (human, UniProt Q08722 19-323); test: cell-based or functional assay
[4] = biological target: T3, FcγR1 on engineered HEK293 cells (UniProt P12314 16-374); test: TR-FRET on FcγR-engineered HEK293 cells
T3 construct: whole, on cells; also called FcγR1 cell line

[5] = biological target: T4, FcγR2B on engineered HEK293 cells (UniProt P31994 43-310); test: TR-FRET on FcγR-engineered HEK293 cells
T4 construct: whole, on cells; also called FcγR2B cell line
T4 sequence (looked up): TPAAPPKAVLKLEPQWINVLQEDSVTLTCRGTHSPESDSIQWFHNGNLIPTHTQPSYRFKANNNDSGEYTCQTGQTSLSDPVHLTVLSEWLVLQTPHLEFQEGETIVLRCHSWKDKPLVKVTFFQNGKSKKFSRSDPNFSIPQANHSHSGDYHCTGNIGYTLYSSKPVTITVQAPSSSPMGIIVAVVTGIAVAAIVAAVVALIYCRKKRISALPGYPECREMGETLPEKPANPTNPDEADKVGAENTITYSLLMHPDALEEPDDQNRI

[6] = biological target: T5, FcγR2A (R131) recombinant protein (human, UniProt P12318 34-217); test: recombinant protein, compared with control anti-RSV IgG1 antibody (p value 0.00019)
T5 sequence (looked up): T1 sequence (looked up) with H134R

[7] = biological target: T6, human CD47 extracellular domain (human, UniProt Q08722 19-139); test: SPR, human CD47 ECD; Example 4 SPR; earlier determination than the 2.32 µM of paragraph 95
T6 construct: extracellular domain; also called human CD47 ECD; Hu CD47

[8] = biological target: T7, human CD20 on cells (human, UniProt P11836 1-297); test: binding to Raji cells (CD20+/CD47+), y axis MFI (the legend paragraph 44 says SPR)
T7 construct: whole, on cells; also called CD20 on Raji cells and human B cells
T7 sequence (looked up): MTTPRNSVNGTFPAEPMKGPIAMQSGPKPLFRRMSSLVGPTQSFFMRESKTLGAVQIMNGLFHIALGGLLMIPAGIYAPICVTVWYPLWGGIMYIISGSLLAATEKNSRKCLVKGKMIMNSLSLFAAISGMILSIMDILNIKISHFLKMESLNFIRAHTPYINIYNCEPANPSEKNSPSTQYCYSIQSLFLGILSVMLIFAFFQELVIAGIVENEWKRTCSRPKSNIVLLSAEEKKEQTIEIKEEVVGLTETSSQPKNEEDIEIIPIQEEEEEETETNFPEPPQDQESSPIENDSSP

[9] = biological target: recombinant human fragment crystallizable gamma receptor (FcγR) family members tested; test: recombinant human FcγR proteins; method not stated
[10] = biological target: FcγR3A (V176) recombinant protein (human, UniProt P08637 17-208); test: recombinant protein, compared with control anti-RSV IgG1 antibody (p value 0.0049)
[11] = biological target: T8, cynomolgus CD47 extracellular domain (cynomolgus monkey, UniProt A0A2K5X523 19-141); test: SPR, cynomolgus CD47 ECD
T8 construct: also called cynomolgus CD47 ECD

[12] = biological target: T2, human CD47 on cells; test: blocking of human SIRPα binding to OCI-Ly3 cells, SIRPα at saturating concentration, secondary antibody detection; competitor SIRPα (repeated in paragraph 145 as average EC50); OCI-Ly3 cells (CD20+/CD47+); blocking of SIRPα binding
[13] = biological target: T6, human CD47 extracellular domain; test: SPR, extracellular domain of human CD47
[14] = biological target: T9, mouse CD47 (mouse, UniProt Q61735 19-140, limits assumed); test: SPR
T9 sequence (looked up): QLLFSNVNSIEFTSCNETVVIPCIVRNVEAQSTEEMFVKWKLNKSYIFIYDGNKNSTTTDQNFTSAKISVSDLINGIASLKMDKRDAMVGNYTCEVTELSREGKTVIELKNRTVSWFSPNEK

[15] = biological target: T6, human CD47 extracellular domain; test: SPR, human CD47 ECD
[16] = biological target: T8, cynomolgus CD47 extracellular domain; test: SPR, cynomolgus CD47
[17] = biological target: T10, human CD20 (human, UniProt P11836 1-297, limits assumed); test: sandwich SPR
T10 sequence (looked up): T7 sequence (looked up)

[18] = biological target: T11, cynomolgus CD20 on B cells (cynomolgus monkey, UniProt M4ZHZ6 1-297); test: binding to cynomolgus macaque B cells
T11 construct: whole, on cells; also called cynomolgus macaque B cells
T11 sequence: T7 sequence (looked up) with S25P, F31L, T51A, A157V, K217R, N226S, I227V, T239V

[19] = biological target: T2, human CD47 on cells; test: blocking of human SIRPα binding to Raji cells, SIRPα at saturating concentration, secondary antibody detection; competitor SIRPα (repeated in paragraph 145 as average EC50); Raji cells (CD20+/CD47+); blocking of SIRPα binding

T2 sequence (Q08722 19-323): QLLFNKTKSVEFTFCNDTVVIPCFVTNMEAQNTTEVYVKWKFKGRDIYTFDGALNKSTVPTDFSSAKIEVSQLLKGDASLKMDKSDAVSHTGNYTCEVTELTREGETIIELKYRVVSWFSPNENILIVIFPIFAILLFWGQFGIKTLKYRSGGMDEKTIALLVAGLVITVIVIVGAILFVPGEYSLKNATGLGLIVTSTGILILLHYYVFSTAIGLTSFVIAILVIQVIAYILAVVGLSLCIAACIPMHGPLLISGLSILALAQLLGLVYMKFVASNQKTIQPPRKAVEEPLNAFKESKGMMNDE
T6 sequence (Q08722 19-139 limits assumed): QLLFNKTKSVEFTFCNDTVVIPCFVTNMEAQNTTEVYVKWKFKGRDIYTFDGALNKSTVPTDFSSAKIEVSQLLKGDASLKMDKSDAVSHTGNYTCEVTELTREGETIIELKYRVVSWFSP
T8 sequence (A0A2K5X523 entry or part of it limits assumed): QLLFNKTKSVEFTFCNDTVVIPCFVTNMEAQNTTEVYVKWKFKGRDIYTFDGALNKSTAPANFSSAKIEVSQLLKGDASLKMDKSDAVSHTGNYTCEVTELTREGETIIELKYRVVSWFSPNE
Sequence of FcγR3A (V176) recombinant protein (P08637 17-208 F176V): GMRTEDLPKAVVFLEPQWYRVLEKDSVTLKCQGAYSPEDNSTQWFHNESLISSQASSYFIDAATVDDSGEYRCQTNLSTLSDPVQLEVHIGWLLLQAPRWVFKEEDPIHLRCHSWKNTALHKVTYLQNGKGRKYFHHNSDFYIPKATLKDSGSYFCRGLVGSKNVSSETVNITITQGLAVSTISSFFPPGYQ
Sequence of FcγR3A (F176) recombinant protein (P08637 17-208): as the sequence (P08637 17-208 F176V) above, with V160F counted along it
T3 sequence (P12314 16-374, change not shown): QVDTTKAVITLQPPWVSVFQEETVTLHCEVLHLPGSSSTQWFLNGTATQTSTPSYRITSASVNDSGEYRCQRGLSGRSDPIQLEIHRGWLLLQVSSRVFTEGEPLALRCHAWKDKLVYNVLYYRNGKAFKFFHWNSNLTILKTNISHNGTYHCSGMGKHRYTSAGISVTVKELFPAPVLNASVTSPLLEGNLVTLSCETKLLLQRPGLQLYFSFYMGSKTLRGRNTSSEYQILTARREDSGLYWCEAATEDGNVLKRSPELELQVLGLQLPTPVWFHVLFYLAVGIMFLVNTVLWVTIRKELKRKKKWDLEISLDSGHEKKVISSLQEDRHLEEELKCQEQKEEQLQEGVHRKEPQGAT

binding result [1]: binds
binding result [2]: binds
EC50 of macrophage phagocytosis of OCI-Ly3 cells, OCI-Ly3 Mφ EC50 (µg/mL) REPEAT [3]: 0.27 µg/mL
binding result [4]: binds
binding result [5]: binds
binding result [6]: binds
Kd [7]: 1700 nM
binding result [8]: binds
Kd [9]: 0.04 to 1620 nM
binding result [10]: binds
Kd [11]: 4510 nM
EC50 [12]: 1.3 nM
Kd [13]: 2320 nM
binding result [14]: no binding
fold decrease in affinity relative to the parental anti-CD47 binder [15]: ~350 fold
Kd [16]: 23000 nM
binding result [17]: binds
binding result [18]: binds
EC50 [19]: 1.64 nM
B1: TPP-1360 (bispecific antibody, human IgG1, kappa)
light 1: NIQMTQSPSSLSASVGDRVTITCRASQDIHRYLSWFQQKPGKVPKHLIYRESRFVDGVPSRFSGSGSGTEFTLTISSLQPEDFATYYCLQYDEFPYTFGGGTKVEIKRTVAAPSVFIFPPSDEELKSGTASVVCWLNNFYPREAKVQWKVDNALQSGNSEESVTEQDSKDSTYSLSSTLELSKADYEKHKVYACEVTHQGLSSPVTKSFNRGEC
heavy 1: QMQLVQSGAEVKKPGSSVKVSCKASGFNIKDYYLHWVRQAPGKGLEWMGWIDPDQGDTYYAQKFQGRVTITRDRSTSTAYMELRSLRAEDTAVYYCNAAYGESSYPMDYWGQGTLVTVSSASTKGPSVFPLAPSSKSTSGGTAALGCLVKDYFPEPVTVSWNSGALTSGVHTFPAVLKSSGLYSLSSVVTVPSSSLGTQTYICNVNHKPSNTKVDKKVEPKSCDKTHTCPPCPAPELLGGPSVFLFPPKPKDTLMISRTPEVTCVVVDVSHEDPEVKFNWYVDGVEVHNAKTKPREEQYNSTYRVVSVLTVLHQDWLNGKEYKCKVSNKALPAPIEKTISKAKGQPREPQVYVLPPSREEMTKNQVSLLCLVKGFYPSDIAVEWESNGQPENNYLTWPPVLDSDGSFFLYSKLTVDKSRWQQGNVFSCSVMHEALHNHYTQKSLSLSPGK
light 2: QIVLSQSPAILSASPGEKVTMTCRASSSVSYIHWFQQKPGSSPKPWIYATSNLASGVPVRFSGSGSGTSYSLTISRVEAEDAATYYCQQWTSNPPTFGGGTKLEIKRTVAAPSVAIFPPSDERLKSGTASVVCVLNNFYPREAKVQWKVDNALQSGNSQESVTEQDSKDSTYSLSSRLTLSKADYEKHKVYACEVTHQGLSSPVTKSFNRGEC
heavy 2: QVQLQQPGAELVKPGASVKMSCKASGYTFTSYNMHWVKQTPGRGLEWIGAIYPGNGDTSYNQKFKGKATLTADKSSSTAYMQLSSLTSEDSAVYYCARSTYYGGDWYFNVWGAGTTVTVSAASTKGPSVFPLAPSSKSTSGGTAWLGCEVTDYFPEPVTVSWNSGALTSGVHTFPAVLESSGLYSLSSVVTVPSSSLGTQTYICNVNHKPSNTKVDKKVEPKSCDKTHTCPPCPAPELLGGPSVFLFPPKPKDTLMISRTPEVTCVVVDVSHEDPEVKFNWYVDGVEVHNAKTKPREEQYNSTYRVVSVLTVLHQDWLNGKEYKCKVSNKALPAPIEKTISKAKGQPREPQVYVYPPSREEMTKNQVSLTCLVKGFYPSDIAVEWESNGQPENNYKTTPPVLDSDGSFALVSKLTVDKSRWQQGNVFSCSVMHEALHNHYTQKSLSLSPGK
notes: also called CD47xCD20 bispecific; anti-CD47/anti-CD20 IgG1 1+1 heterodimer bispecific antibody
